Reference: the nanobody polyreactivity screen of Harvey et al. (2022)

Assay: yeast display, Sf9 membrane polyspecificity reagent, FACS + sequencing; frameworks hold sequencing errors
Outline: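 Galactose induction of a Saccharomyces cerevisiae BJ5465 synthetic nanobody display library ran 36–48 hours. The cells were then stained for 1 hour at 4 °C with 10% biotinylated, detergent-solubilized Sf9 membrane reagent, pulled down on streptavidin microbeads and FACS-sorted into low and high (top ~1%) gates on expression and reagent-binding fluorescence. Labels for polyreactivity follow the gate of origin.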

| Sequence | polyreactivity (PSR sort gate) |
| --- | --- |
| QVQLVESGGGLVQAGGSLRLSCAASGFIFYVKAMGWYRKAPGKERELVASITNGGSTTYADSVKGRFTISRDNAKNTDDLQMNSLKPEDTAVYYCHASGLDFSYFDEFNYWGQGTQVTVSS | low polyreactivity |
| QVQLVESGGGLVQAGGSLRLSCAASGFIFYYNAMGWYRPAPGTERELVATINNDGGSSTYADSVKGRFTISRDNAKNTVYLQMNSLKPEDTAVYYCNAEAFYFTHTVWIPYYYWGQGTQVTVLS | low polyreactivity |
| QVQLVESGGGLVQAGGSLRLSCAASGFIFYYNAMGWYRQAPGKERELVAAISSSAGSTYYADSVKGRFTISRDNAKNTVYLQMNSLKPEDTAVYYCNADSSYRTIDSASDYDYWGQGTQVTVSS | low polyreactivity |
| QVQLVESGGGLVQAGGSLRLSCAASGFIFYYNAMVWYRQAPGKERELVAAITDDGGGTYYADSVKGRFTISRDNAKNTVYLQMNSLKPEDTAVYYCAADGYNYEHDYWGQGTQVTVSS | low polyreactivity |
| QVQLVESGGGLVQAGGSLRLSCAASGFIFYYYAMGWYRQAPGKERELVAAITGSGGNTYYADSVKGRFTISRDNEKNSVFFHMNSLKPEDTAVYYCNTGYDRGGDYWGQGTQVTVSS | high polyreactivity |
| QVQLVESGGGLVQAGGSLRLSCAASGFIFYYYAMGWYRQAPGKERELVAGIDKTGGSTYYADSVKGRFTISRDNAKNTVYFQMNSLKPEDTAVYYCAAGYFFPRLRFRNYAYVYWGQGTQVTVSS | high polyreactivity |
| QVQLVESGGGLVQAGGSLRLSCAASGFIFYYYAMGWYRQAPGKERELVAVLAVSGSSTYYADSEKGRFTISRDNAKNIVFLQKNSLKPEDTAVYYCNADFWPYTGKYDYWGQGTQVTVSS | low polyreactivity |
| QVQLVESGGGLVQAGGSLRLSCAASGFIFYYYAMGWYRQATGKERELDASISSDGSTYYADSVKGRFTISRDNAKNTVYLQMNSLKPEDTAVYYCNADRYYPDDLSDGVGTYDYWGQGTQVTVSS | low polyreactivity |
| QVQLVESGGGLVQAGGSLRLSCAASGFIIAQYAMGWYRQAPGKERELVAGITSTGSTNYADSVKGRFTISRDNAKNTVYLQMNSLKPEDTAVYYCNTDYITASAVFDYDYWGQDTQVTVSS | low polyreactivity |
| QVQLVESGGGLVQAGGSLRLSCAASGFIIAYYAMGWYRQAPGKERELVAAISRRGGSTYYADSVKGRFTISRDNAKNTVYLQMNSLKPEDTAVYYCAKAHYLSDYNYWGQGTQVTVSS | high polyreactivity |
| QVQLVESGGGLVQAGGSLRLSCAASGFIIGGYAMGWYRQAPGKERELVASITSGGRTYYADSVKGRFSISRDNAKNTVFLQMNSLKPEDTAVYDCAARQQTYYYKIYYWGQGSQVTVSS | high polyreactivity |
| QVQLVESGGGLVQAGGSLRLSCAASGFIIGVNDMGWYRQPPGKERELVAAITSGGNTNYADSVKGRFTISRDNAKNTVYLQMNSLKPEDTAVYYCIVDTRLPMDYWGQGTQVTVSS | low polyreactivity |
| QVQLVESGGGLVQAGGSLRLSCAASGFIIPVYAMGWYRQAPGKERELVAAITYSGARTYYADSVKGRFTISRDNAKNTVYLQMNSLKPEDTAVYYCAAAPGYLKYSPGHYGYNYWGQGTQVTVSS | high polyreactivity |
| QVQLVESGGGLVQAGGSLRLSCAASGFIIYYNAMGWYRQAPGKEREFVAGISFSGDGRTYYADSVKGRFTISRDNAKNTVYLQMNSLKPEDTAVYYCAAPHRSRTHELDYWGQGTQVTVSS | low polyreactivity |
| QVQLVESGGGLVQAGGSLRLSCAASGFILGYNAMGWYRQAPGKERELVADITFSGGGTNYADSVKGRFTISRDNAKNSVYLQMNSLKPEDTAVYYCNAAAFSQLRVRYDYWGQGTQVTVSS | low polyreactivity |
| QVQLVESGGGLVQAGGSLRLSCAASGFILNQYAMGWYRQAPGKERELVAAISNGGSTNYADSVKGRFTISRDNAKNTVYLQMNSLKPEDTAVYYCAKDQSLTYSSVWGYDYWGQGTQVTVSS | low polyreactivity |
| QVQLVESGGGLVQAGGSLRLSCAASGFILQGYAMGWYRQAPGKERELVATITTSSRTYYADSVKGRFTISRDNAKNTVYLQMNRLKPEDTAVYYCDKSVYPYGYYYGQMDYWGQGTQVTVSS | high polyreactivity |
| QVQLVESGGGLVQAGGSLRLSCAASGFILSPYAMGWYRQAPGKERELGAVITISGGSTYYADSVKGRFTISRDNAKNTVYLQMNSLKPEDTAVYYCAADYYDLVYDYYYWGQGTQVTVSS | high polyreactivity |
| QVQLVESGGGLVQAGGSLRLSCAASGFILSRYTMGWYRQAPGKERELVATISSGGRTYYADSVKGRFTISRDNAKNTVYLQMNSLKPEDTAVYYCAAAYTYWRIPGNRYLYDYWGQGTQVTVSS | high polyreactivity |
| QVQLVESGGGLVQAGGSLRLSCAASGFILSRYTMGWYRQAPGKERELVATISSGGRTYYADSVKGRFTISRDNAKNTVYLQMNSLKPEDTAVYYCAAAYTYWRISGNRYLYDYWGQGTQVTVSS | high polyreactivity |
| QVQLVESGGGLVQAGGSLRLSCAASGFILVGYAMGWYRQARGKERELVAAITSGGTTSYADAVKGSFIISRDNAKNTVYLQMISLKPEESAVYYCAAVQWDSSSKYYYWGQGTQVTVSS | low polyreactivity |
